How the values were obtained:
c-Abl (mouse) = assay: phosphorylation enrichment, bacterial display (enrichment ratio); higher = better substrate or ligand; peptides without Tyr show the background
c-Src = assay: as above
Jak2 = Jak2 (UniProt O60674); assay: as above
Fyn = Fyn (UniProt P06241); assay: as above
Hck = Hck (UniProt P08631); assay: as above
AncSZ = assay: as above
EPHB1 = EPHB1 (UniProt P54762); assay: as above
Fes = Fes (UniProt P07332); assay: as above
FGFR1 = FGFR1 (UniProt P11362); assay: as above
FGFR1, sequence (P11362 whole entry, looked up): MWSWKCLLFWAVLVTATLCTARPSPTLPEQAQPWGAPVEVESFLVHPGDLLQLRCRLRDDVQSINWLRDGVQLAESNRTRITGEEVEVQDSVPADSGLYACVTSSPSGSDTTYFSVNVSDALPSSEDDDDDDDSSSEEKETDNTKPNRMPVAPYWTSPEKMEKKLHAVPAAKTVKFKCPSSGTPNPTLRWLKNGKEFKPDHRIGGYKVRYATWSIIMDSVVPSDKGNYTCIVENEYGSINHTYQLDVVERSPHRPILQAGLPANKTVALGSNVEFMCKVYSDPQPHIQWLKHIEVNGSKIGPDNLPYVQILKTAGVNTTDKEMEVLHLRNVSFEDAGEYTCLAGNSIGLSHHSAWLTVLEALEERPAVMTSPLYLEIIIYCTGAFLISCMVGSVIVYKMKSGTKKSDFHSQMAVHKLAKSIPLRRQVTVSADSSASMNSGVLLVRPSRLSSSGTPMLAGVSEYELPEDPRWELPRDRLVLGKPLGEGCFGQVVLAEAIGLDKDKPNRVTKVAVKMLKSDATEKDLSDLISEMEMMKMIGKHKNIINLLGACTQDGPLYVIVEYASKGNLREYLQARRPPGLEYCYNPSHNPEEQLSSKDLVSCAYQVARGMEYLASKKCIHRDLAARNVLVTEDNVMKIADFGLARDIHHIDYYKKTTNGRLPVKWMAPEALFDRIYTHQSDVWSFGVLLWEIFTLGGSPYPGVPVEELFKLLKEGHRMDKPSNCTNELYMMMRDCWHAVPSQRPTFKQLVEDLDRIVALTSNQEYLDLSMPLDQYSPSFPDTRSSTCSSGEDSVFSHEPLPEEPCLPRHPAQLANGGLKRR

Fer (mouse) = assay: as above
EPHB2 = EPHB2 (UniProt P29323); assay: as above
EPHB2, sequence (P29323 whole entry, looked up): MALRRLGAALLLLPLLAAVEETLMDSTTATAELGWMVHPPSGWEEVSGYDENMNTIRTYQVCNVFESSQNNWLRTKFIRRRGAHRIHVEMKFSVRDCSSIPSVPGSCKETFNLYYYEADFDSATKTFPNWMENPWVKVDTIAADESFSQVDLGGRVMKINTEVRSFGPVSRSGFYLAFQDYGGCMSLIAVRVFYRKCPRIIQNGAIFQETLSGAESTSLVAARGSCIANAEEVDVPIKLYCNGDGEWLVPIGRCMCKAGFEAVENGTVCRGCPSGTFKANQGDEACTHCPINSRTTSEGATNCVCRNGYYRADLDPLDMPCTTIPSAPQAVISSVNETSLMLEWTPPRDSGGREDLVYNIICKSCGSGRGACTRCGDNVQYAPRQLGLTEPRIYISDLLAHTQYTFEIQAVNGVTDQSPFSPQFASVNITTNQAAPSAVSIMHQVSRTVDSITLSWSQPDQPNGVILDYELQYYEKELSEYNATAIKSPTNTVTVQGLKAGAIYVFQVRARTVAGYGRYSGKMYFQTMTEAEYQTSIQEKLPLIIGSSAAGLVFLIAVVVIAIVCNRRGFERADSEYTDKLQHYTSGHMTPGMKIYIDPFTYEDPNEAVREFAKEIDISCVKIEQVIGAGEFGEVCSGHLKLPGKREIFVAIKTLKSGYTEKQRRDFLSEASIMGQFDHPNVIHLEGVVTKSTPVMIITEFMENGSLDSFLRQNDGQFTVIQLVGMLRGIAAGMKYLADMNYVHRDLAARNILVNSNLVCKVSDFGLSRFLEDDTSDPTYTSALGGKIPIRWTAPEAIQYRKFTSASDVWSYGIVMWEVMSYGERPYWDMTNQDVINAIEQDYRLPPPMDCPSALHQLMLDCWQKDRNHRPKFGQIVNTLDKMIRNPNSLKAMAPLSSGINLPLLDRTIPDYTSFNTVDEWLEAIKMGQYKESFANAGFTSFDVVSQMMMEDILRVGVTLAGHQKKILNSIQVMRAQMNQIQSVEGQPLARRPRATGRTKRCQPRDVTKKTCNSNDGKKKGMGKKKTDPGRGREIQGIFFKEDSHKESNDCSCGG

MERTK = MERTK (UniProt Q12866); assay: as above
FGFR3 = FGFR3 (UniProt P22607); assay: as above
SHP2-C SH2 = assay: SH2 binding enrichment of the phosphorylated peptide, bacterial display (enrichment ratio); higher = better substrate or ligand; peptides without Tyr show the background
c-Src SH2 = assay: as above
Grb2 SH2 = Grb2 SH2 (UniProt P62993); assay: as above
Grb2 SH2, sequence (P62993 whole entry, looked up, the tested form may be a part): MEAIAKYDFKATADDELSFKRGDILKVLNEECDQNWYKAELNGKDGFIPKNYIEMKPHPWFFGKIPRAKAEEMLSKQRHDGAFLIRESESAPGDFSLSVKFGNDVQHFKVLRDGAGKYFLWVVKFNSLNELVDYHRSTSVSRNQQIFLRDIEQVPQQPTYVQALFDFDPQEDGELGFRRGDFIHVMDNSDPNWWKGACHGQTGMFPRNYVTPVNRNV
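Wherever SH2 binding enrichment of the phosphorylated peptide, bacterial display is given: peptide library displayed on the E. coli surface as eCPX fusions, selected cells deep-sequenced, score is each peptide's frequency after selection divided by its frequency in the input.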
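Wherever phosphorylation enrichment, bacterial display is given: 11-residue human phosphosite peptides and single-mutation variants displayed on the E. coli surface, counted by deep sequencing, each peptide's frequency after selection divided by its frequency in the unselected input library; frequency after pTyr selection over input frequency; kinase dosed for 20-30% of maximal phosphorylation in three min.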

Fes, sequence (P07332 whole entry, looked up): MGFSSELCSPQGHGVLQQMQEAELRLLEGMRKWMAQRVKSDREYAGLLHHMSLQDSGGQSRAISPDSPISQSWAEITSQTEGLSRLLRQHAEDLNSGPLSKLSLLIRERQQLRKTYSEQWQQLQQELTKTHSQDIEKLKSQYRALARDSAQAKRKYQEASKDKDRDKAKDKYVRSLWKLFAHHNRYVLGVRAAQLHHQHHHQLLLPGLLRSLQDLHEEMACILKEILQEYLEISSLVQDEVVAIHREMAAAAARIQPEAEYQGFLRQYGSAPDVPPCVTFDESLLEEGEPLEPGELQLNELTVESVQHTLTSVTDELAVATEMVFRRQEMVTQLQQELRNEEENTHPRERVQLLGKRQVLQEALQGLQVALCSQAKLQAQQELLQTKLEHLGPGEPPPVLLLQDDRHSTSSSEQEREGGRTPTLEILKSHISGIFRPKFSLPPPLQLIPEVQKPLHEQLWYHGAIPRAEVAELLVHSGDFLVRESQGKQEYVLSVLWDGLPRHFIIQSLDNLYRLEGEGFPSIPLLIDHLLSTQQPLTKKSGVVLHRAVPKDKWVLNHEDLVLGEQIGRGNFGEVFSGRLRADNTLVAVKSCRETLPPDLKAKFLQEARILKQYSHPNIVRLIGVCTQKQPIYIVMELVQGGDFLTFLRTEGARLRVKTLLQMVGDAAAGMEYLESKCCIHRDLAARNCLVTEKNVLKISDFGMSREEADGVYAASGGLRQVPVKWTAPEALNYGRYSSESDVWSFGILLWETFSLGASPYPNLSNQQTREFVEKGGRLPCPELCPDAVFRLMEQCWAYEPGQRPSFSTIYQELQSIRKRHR
Jak2, sequence (O60674 whole entry, looked up): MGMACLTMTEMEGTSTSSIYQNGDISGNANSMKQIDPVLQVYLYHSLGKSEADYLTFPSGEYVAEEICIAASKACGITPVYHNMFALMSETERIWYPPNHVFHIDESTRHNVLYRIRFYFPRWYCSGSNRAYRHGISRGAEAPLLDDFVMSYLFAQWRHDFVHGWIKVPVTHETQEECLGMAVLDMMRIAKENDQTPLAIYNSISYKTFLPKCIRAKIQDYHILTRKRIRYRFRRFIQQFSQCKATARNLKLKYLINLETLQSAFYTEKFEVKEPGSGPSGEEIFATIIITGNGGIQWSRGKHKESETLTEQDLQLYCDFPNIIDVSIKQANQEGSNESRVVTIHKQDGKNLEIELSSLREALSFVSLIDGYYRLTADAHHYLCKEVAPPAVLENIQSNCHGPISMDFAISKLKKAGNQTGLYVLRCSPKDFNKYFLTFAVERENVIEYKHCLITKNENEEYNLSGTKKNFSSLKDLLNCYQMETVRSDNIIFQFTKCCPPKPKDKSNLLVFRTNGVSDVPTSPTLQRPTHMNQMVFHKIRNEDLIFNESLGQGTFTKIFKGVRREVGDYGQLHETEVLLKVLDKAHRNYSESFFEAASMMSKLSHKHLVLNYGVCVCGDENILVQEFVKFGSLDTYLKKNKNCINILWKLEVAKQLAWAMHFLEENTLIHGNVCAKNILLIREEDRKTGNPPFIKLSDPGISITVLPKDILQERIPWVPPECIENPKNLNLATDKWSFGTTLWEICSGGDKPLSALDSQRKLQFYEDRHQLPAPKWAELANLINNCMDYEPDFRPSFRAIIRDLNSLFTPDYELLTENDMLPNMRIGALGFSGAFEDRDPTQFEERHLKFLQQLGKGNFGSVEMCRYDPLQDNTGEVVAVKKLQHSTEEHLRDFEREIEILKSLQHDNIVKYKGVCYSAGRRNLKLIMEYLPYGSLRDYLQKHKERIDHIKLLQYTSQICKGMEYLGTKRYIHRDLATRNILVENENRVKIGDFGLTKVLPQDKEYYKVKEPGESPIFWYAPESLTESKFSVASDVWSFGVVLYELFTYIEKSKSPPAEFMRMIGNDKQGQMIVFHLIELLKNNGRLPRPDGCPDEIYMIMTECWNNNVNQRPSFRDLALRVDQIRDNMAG
EPHB1, sequence (P54762 whole entry, looked up): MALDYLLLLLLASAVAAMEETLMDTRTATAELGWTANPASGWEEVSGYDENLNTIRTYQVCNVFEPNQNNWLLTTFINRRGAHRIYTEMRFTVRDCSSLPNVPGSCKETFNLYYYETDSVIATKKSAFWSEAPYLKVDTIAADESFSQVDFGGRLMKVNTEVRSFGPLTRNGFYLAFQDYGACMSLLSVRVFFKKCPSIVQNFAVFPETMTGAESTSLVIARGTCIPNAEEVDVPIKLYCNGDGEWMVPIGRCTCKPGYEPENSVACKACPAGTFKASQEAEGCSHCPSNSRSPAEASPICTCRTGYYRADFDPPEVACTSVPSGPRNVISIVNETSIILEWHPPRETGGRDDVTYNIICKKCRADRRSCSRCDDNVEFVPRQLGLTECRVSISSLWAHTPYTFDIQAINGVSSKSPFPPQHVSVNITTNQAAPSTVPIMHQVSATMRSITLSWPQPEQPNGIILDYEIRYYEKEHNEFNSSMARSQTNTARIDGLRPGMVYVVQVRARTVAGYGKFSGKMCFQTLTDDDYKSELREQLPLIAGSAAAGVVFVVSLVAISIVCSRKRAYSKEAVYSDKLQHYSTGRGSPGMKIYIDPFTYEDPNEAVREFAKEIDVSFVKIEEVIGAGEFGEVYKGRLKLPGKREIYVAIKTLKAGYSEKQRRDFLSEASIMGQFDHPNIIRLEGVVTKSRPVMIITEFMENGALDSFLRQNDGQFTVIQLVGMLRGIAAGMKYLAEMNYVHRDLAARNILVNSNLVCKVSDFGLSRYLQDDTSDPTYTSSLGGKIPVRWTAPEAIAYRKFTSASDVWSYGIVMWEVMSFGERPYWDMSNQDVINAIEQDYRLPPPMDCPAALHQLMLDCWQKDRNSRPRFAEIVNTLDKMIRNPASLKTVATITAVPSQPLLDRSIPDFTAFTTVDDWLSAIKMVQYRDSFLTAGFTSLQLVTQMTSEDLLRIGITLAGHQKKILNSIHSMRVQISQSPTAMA

Sequence | phosphorylation enrichment (c-Abl (mouse)) | phosphorylation enrichment (c-Src) | phosphorylation enrichment (Jak2) | phosphorylation enrichment (Fyn) | phosphorylation enrichment (Hck) | phosphorylation enrichment (AncSZ) | phosphorylation enrichment (EPHB1) | phosphorylation enrichment (Fes) | phosphorylation enrichment (FGFR1) | phosphorylation enrichment (Fer (mouse)) | phosphorylation enrichment (EPHB2) | phosphorylation enrichment (MERTK) | phosphorylation enrichment (FGFR3) | SH2 binding enrichment (SHP2-C SH2) | SH2 binding enrichment (c-Src SH2) | SH2 binding enrichment (Grb2 SH2)
RSDSTYRMSAT [NHS_Y1532_S1531T] | 0.697 | 0.632 | 0.709 | 0.528 | 0.436 | 0.587 | 0.411 | 0.581 | 0.558 | 0.587 | 0.556 | 0.335 | 0.637 | 0.472 | 0.341 | 0.769
RSFSPYDFQPC [TNS1_Y796_YF] | 1.18 | 5.06 | 1.28 | 5.66 | 0.959 | 1.5 | 0.672 | 1.29 | 0.66 | 0.822 | 0.929 | 1.69 | 0.788 | 0.613 | 0.668 | 0.744
RSHLSYDVTPE [IQGAP3_Y1098_P1097S] | 0.982 | 0.561 | 1.05 | 0.509 | 0.432 | 0.733 | 0.767 | 1.14 | 0.473 | 0.453 | 0.717 | 0.594 | 0.924 | 0.787 | 0.555 | 0.951
RSPLRYISILT [OR51B6_Y130_T131I] | 0.419 | 0.322 | 0.475 | 0.409 | 0.515 | 0.724 | 0.446 | 0.8 | 0.676 | 0.606 | 0.473 | 0.376 | 0.763 | 1.33 | 1.07 | 1.01
RSRSPYSPVFR [CDK13_Y399_L403F] | 0.58 | 0.576 | 0.737 | 0.6 | 0.736 | 0.812 | 0.546 | 0.77 | 0.459 | 0.403 | 0.452 | 0.655 | 0.462 | 0.405 | 0.463 | 0.706
RTCSSYAIEKI [PARP15_Y520] | 0.667 | 0.383 | 0.894 | 0.302 | 0.581 | 1.13 | 0.532 | 0.986 | 0.589 | 0.371 | 0.702 | 0.344 | 0.629 | 0.855 | 0.563 | 0.938
RVNSAYQDKVS [ACAN_Y100] | 1.06 | 0.484 | 1.36 | 0.517 | 0.396 | 0.849 | 0.642 | 0.796 | 0.513 | 0.437 | 0.648 | 0.498 | 0.567 | 0.679 | 0.455 | 0.784
RWHEGYRQTPK [CD44_Y412] | 0.418 | 0.361 | 0.607 | 0.418 | 0.429 | 0.66 | 0.407 | 0.678 | 0.405 | 0.367 | 0.589 | 0.356 | 0.595 | 1.73 | 0.898 | 1.47
RWHEGYRQTPR [CD44_Y412_K417R] | 0.65 | 0.35 | 0.539 | 0.299 | 0.345 | 0.645 | 0.461 | 0.851 | 0.433 | 0.613 | 0.383 | 0.539 | 0.663 | 1.23 | 1.7 | 1.43
RYLTRYIYNRE [HLA-DQB1_Y62_V59L] | 1.07 | 1.57 | 1.92 | 1.11 | 0.621 | 1.91 | 4.73 | 1.32 | 0.564 | 0.813 | 0.773 | 3.87 | 0.772 | 0.763 | 0.627 | 1.11
SAQHHYESLQT [BIN1_Y157_R154Q] | 0.601 | 0.433 | 0.484 | 0.418 | 0.513 | 0.763 | 0.463 | 0.622 | 0.47 | 0.703 | 0.402 | 0.504 | 0.442 | 0.903 | 36.4 | 0.781
SARHHYESLQT [BIN1_Y157] | 0.636 | 0.447 | 0.479 | 0.36 | 0.446 | 0.532 | 0.431 | 0.564 | 0.445 | 0.499 | 0.374 | 0.455 | 0.396 | 0.952 | 34.4 | 0.854
SDGHEYIFVDR [PDGFRB_Y579_P584R_YF] | 0.489 | 0.517 | 0.71 | 0.436 | 0.398 | 0.962 | 0.427 | 0.759 | 1.04 | 0.329 | 0.448 | 0.35 | 0.833 | 0.676 | 0.636 | 0.845
SECCKYKIDNL [OSMR_Y689_P694L] | 0.748 | 0.436 | 0.823 | 0.446 | 0.428 | 0.864 | 0.551 | 0.939 | 0.462 | 0.473 | 0.384 | 0.432 | 0.685 | 0.477 | 0.43 | 0.739
SEEVTYATLTF [CLEC12B_Y7] | 5.98 | 5.28 | 1.38 | 6.58 | 5.06 | 1.48 | 0.98 | 1.53 | 1.49 | 2.19 | 1.07 | 2.18 | 1.57 | 2.52 | 0.481 | 0.845
SFPPTYRFERG [INPPL1_Y661_YF] | 0.556 | 0.592 | 0.51 | 0.412 | 0.369 | 0.638 | 0.405 | 0.603 | 0.393 | 0.362 | 0.626 | 0.418 | 0.476 | 0.767 | 0.442 | 0.868
SFTDPYAQPSL [KMT2D_Y2378_P2382S_YF] | 0.747 | 0.447 | 0.689 | 0.481 | 0.581 | 0.743 | 0.47 | 0.806 | 0.508 | 0.447 | 0.526 | 0.429 | 0.67 | 0.759 | 2.12 | 0.777

Source: the supplement of paper PMC10065799, “High-throughput profiling of sequence recognition by tyrosine kinases and SH2 domains using bacterial peptide display” (eLife, 2023)
